Experimental data taken from patent US20110165161A1, “ANTI-EPCAM ANTIBODIES THAT INDUCE APOPTOSIS OF CANCER CELLS AND METHODS USING SAME” (priority 2009, published 2011).
Numbering of substitutions follows the chain as printed.

B1: 2D11: murine anti-human EpCAM monoclonal antibody (IgG1, K), hybridoma m322-2D11.19; VH SEQ ID NO:15, VL SEQ ID NO:17 (antibody, listed as Mus musculus, V domains shown)
VH: QIQLVQSGPELKKPGETVKISCKASGYTFTNYGMNWVKQAPGKGLKWMGWINTNTGEATYVEEFKGRVVFSLETSASTAYLQINNLKNEDTATYFCARIGYVWYFDVWGAGTTVTVSS
VL: DIVMSQSPSSLAVSAGEKVTMSCKSSQSLFSSRTRKNYLAWYQQKPGQSPKLLIYWASTRESGVPDRFTGSGSGTDFTLTINSVQAEDLAVYYCKHSNNLFTFGSGTKLEIKR
B2: 6D11: murine anti-human EpCAM monoclonal antibody (IgG1, K), hybridoma m338-6D11.8; VH SEQ ID NO:23, VL SEQ ID NO:25 (antibody, listed as Mus musculus, V domains shown)
VH: EVQLVESGGDLVKPGGSLKLSCAASGFAFDSYGMSWIRQTPGTRLEWVATISSGGYYTYYEDNVKGRFIISRDNAKNTLDLQMSGLKSEDAATYYCARRGNYDVDYYAMDYWGQGTSVIVSS
VL: DVVLTQIPLSLPVSLGDQASISCRSSQSLEHSNGNTYLHWYLQKPGQSPKLLIYKVSNRFSGVPDRFSGSGSGTDFTLKISRVEAEDLGVYFCSQSTHVPPWTFGGGTKLEFKR
B3: 4D2: murine anti-human EpCAM monoclonal antibody (IgG1, K), hybridoma m338-4D2.20; VH SEQ ID NO:19, VL SEQ ID NO:21 (antibody, listed as Mus musculus, V domains shown)
VH: B2 VH with I37V, T43K, E61Q, N63S, I69T, I70T, G85S, A91S, T93I, I119T
VL: B2 VL with L4M, I7T, E30V, K79R, F112I

Test system: CHO parental cells
Test: FACS binding of anti-EpCAM antibodies to CHO parental cells
Set-up: species or system Chinese hamster
Conditions: antibody 0.1 μg/ml; HPS at 300x dilution
Procedure: 1×10^5 CHO/EpCAM or CHO parental cells were seeded in each well of a v-bottomed 96-well plate and incubated with purified anti-EpCAM antibodies or mouse IgG control antibody 9E10 at concentration of 0.1 μg/ml. A 300× dilution of human cell hyper-immune serum (HPS 300×) was used as binding positive control for both cell lines here. After 1 hr incubation at 4° C., cells were washed twice with 200 μl FACS buffer (1×PBS containing 1% FBS), stained with 100 μl of 1 μg/ml goat-anti-mouse IgG-PE (Southern Biotech, Cat. No. 1032-09) in FACS buffer and then incubated at 4° C. for 30 min. Cells were washed thrice with FACS buffer and analyzed by flow cytometry (BD LSR, BD Life Sciences).

Molecule	Binding (FACS, Mean fluorescence intensity (MFI)) CHO
B1	6
B2	5
B3	5

Test system: Breast cancer T-47D cells
Test: Antibody cytotoxicity assay (Annexin V + PI), T-47D
Type: cell-based
Conditions: 1, 3 and 10 μg/ml, overnight
Procedure: (§1) After a 17-20 hr incubation at 37° C., cells were stained with 0.3 μl of FITC-conjugated Annexin V (Strong Biotech Corp. Cat. No. AVK250) in 50 μl Annexin V binding buffer (Strong Biotech Corp. Cat. No. AVK250) at RT for 20 min. After wash, the cells were then stained with 0.3 μl of propidium iodide in 200 μl Annexin V binding buffer. Annexin V and Propidium Iodide were used as a joint indicator for cell death. The data were acquired with BD FACSCalibur based on an acquisition of 3,000-5,000 cells and analyzed with the Cell Quest software. The combined percentages of the Annexin V+/PI+, Annexin V+/PI− and Annexin V−/PI+populations were considered as dead cells.

Molecule	Induction of cell death (in words)
B1	substantial cell death
B2	substantial cell death
B3	substantial cell death

Test system: Prostate cancer LNCaP cells
Test: Antibody cytotoxicity assay (Annexin V + PI), LNCaP
Type: cell-based
Conditions: 1, 3 and 10 μg/ml, overnight
Procedure: as §1

Molecule	Induction of cell death (in words)
B1	substantial cell death
B2	substantial cell death
B3	substantial cell death

Test system: Gastric cancer NCI-N87 cells
Test: Antibody cytotoxicity assay (Annexin V + PI), NCI-N87
Type: cell-based
Conditions: 1, 3 and 10 μg/ml, overnight
Procedure: as §1

Molecule	Induction of cell death (in words)
B1	substantial cell death
B2	substantial cell death
B3	substantial cell death

Test system: Colorectal cancer DLD-1 cells
Test: Antibody cytotoxicity assay (Annexin V + PI), DLD-1
Type: cell-based
Conditions: 1, 3 and 10 μg/ml, overnight
Procedure: as §1

Molecule	Induction of cell death (in words)
B1	substantial cell death
B2	substantial cell death
B3	substantial cell death

Test system: Lung cancer NCI-H520 cells
Test: Antibody cytotoxicity assay (Annexin V + PI), NCI-H520
Type: cell-based
Conditions: 1, 3 and 10 μg/ml, overnight
Procedure: as §1

Molecule	Induction of cell death (in words)
B1	substantial cell death
B2	substantial cell death
B3	substantial cell death

Test system: Ovarian cancer NIH:OVCAR-3 cells
Test: Antibody cytotoxicity assay (Annexin V + PI), NIH:OVCAR-3
Type: cell-based
Conditions: 1, 3 and 10 μg/ml, overnight
Procedure: as §1

Molecule	Induction of cell death (in words)
B1	substantial cell death
B2	substantial cell death
B3	substantial cell death

Test system: Pharynx cancer FaDu cells
Test: Antibody cytotoxicity assay (Annexin V + PI), FaDu
Type: cell-based
Conditions: 1, 3 and 10 μg/ml, overnight
Procedure: as §1

Molecule	Induction of cell death (in words)
B1	substantial cell death
B2	substantial cell death
B3	substantial cell death

Test system: NCI-H358 lung cancer cells
Test: Cell death in NCI-H358 lung cancer cells (Annexin V + PI)
Type: cell-based, human
Conditions: mean of 5 experiments; mAb 10 μg/ml; 17 hr
Procedure: 5×10^4 NCI-H358 cells were seeded to each well of a 96-well plate, and then 10 μg/ml of anti-EpCAM or control (9E10) mAbs diluted in the medium was added into the cells. After a 17-hr incubation at 37° C., the cells were stained with 0.3 μl of FITC-conjugated Annexin V (Strong Biotech Corp. Cat. No. AVK250) in 50 μl Annexin V binding buffer (Strong Biotech Corp. Cat. No. AVK250) at RT for 20 min. After wash, the cells were then stained with 0.3 μl of propidium iodide in 200 μl Annexin V binding buffer. Annexin V and Propidium Iodide were used as a joint indicator for measuring cell death. The data were acquired with BD FACSCalibur based on an acquisition of 3,000-5,000 cells and analyzed with the Cell Quest software. The combined percentages of the Annexin V+/PI+, Annexin V+/PI− and Annexin V−/PI+populations were considered as dead cells.

Molecule	% of Annexin V + PI staining (untreated background subtracted), Mean ± SEM
B1	39.4 ± 3.0%
B2	42.4 ± 1.0%
B3	43.6 ± 0.9%
